The supplement of paper PMC10567573

B1: TNNI2 (parent)
chain: DWRKNIEEKSGMEGRKKMFESES

Variants of: B1
Assay: protein stability index of a GFP-peptide fusion (GPS, HEK-293T) (PSI 1-6); higher = more stable
Conditions: c terminus: native
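Further: lentivirally expressed fusions sorted by FACS into six bins by GFP to DsRed ratio, PSI derived from sequencing read proportions per bin multiplied by bin number.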

Protein stability index of substitutions, site by site:
W2: L 2.85 | Q 3.67 | D 3.12 | G 2.51 | F 2.55 | V 2.96 | S 2.69 | K 1.95 | N 2.25 | E 3.25 | C 2.88 | M 3.08 | H 2.95 | Y 2.93 | I 2.53 | P 3.59 | T 2.32
E13: L 2.47 | F 1.73 | S 1.77 | K 2.94 | V 2.33 | N 2.75 | A 2.01 | C 2.78 | P 2.34 | R 2.72 | Q 2.03 | D 2.52 | M 2.03 | Y 2.15 | W 1.81 | T 3.7 | G 3.41 | H 2.19
M18: G 5.42 | R 4.45 | H 2.7 | T 4.9 | Y 1.85 | C 3.89 | P 4.59 | N 4.47 | S 4.36 | W 1.66 | A 2.26 | K 2.78 | E 4.34 | I 1.98 | D 6 | L 1.13 | V 2.39
E20: A 2.88 | W 3.71 | S 4.04 | K 2.92 | Q 3.54 | D 3.65 | T 2.94 | R 2.22 | V 2.79 | F 4.56 | P 5.16 | C 2.67 | L 2.33 | M 2.75 | H 4.26 | G 4.73 | I 2.89
K4: M 3.39 | G 3.03 | C 2.32 | F 2.37 | A 3.61 | W 2.13 | H 2.62 | P 2.61 | D 3.23 | Q 3.21 | L 2.82 | Y 2.56 | S 3.03 | N 3.23 | E 2.59 | I 2.13 | V 3.15 | T 2.98
K9: I 2.39 | Q 1.68 | H 2.4 | T 2.54 | W 2.34 | P 1.75 | N 2.58 | E 2.13 | Y 1.93 | D 1.73 | S 3.35 | C 1.84 | L 2.51 | F 2.44
G14: H 1.94 | K 1.31 | W 2.78 | D 1.67 | E 1.38 | M 1.99 | N 2.22 | S 1.63 | A 1.43 | P 2.56 | C 2.56 | I 1.6 | R 2.55 | F 1.93 | V 1.08 | T 1.41
N5: I 2.32 | T 3.41 | H 2.07 | Y 1.62 | W 1.64 | Q 2.72 | C 2.7 | P 3.97 | F 2.43 | E 2.28 | D 1.94 | M 2.37 | G 2.5 | A 3.79 | S 2.31 | R 2.95 | L 2.57 | V 2.04
E8: N 3.61 | M 1.5 | L 2.47 | K 2.74 | P 3.03 | F 2.06 | V 2.66 | G 2.06 | W 1.52 | I 2.41 | S 1.99 | A 2.2 | R 1.84 | Y 2.16 | H 2.09 | Q 2.17 | C 1.63 | T 2.17
S10: A 1.7 | N 2.54 | H 2.29 | Q 2.97 | K 2.18 | G 2.42 | V 1.02 | M 2.16 | L 1.58 | R 2.55 | I 2.89 | T 2.47 | E 2.28 | C 1.81 | Y 2.82 | P 2.52
R15: D 2.44 | N 2.77 | K 3.5 | I 1.71 | Q 3.12 | P 2.98 | G 1.76 | H 2.15 | E 2.8 | M 1.51 | A 2.59 | Y 2.15 | F 1.62 | T 2.7 | L 2.56
M12: S 2.5 | F 2.38 | C 2.71 | P 1.96 | E 2.47 | W 1.39 | N 2.89 | T 3.47 | I 3.01 | V 2.39 | Q 2.02 | L 2.13 | D 2.52 | K 2.72 | H 2.42 | R 2.74 | Y 2.94
K16: N 1.95 | D 3.19 | V 2.32 | L 2.85 | Y 1.24 | C 2.19 | W 1.85 | R 2.3 | P 2.72 | M 1.92 | Q 2.19 | H 1.85 | T 2.07 | G 1.78 | I 1.83 | E 2.39 | S 1.98
E7: V 2.26 | H 1.84 | P 2.85 | C 2.01 | I 1.75 | R 2.8 | W 2.01 | N 2.79 | Q 2.56 | D 3 | F 1.77 | Y 2.12 | A 2.16 | K 2.62 | G 1.83 | L 2.17 | S 1.76 | T 2.82 | M 2.25
I6: V 2.09 | C 2.54 | Q 3.26 | M 2.52 | T 3.26 | R 2.09 | G 2.41 | P 3.72 | N 2.54 | A 2.59 | Y 1.88 | K 2.23 | H 2.12 | S 2.54
D1: T 2.37 | I 2.63 | R 2.79 | P 2.57 | S 1.79 | H 2.27 | F 1.9 | K 2.01 | N 2.79 | M 1.57 | V 2.37 | W 3.07 | G 2.28 | Y 2.24 | A 2.91 | C 1.75 | Q 2.65 | L 1.9
K17: T 2.39 | V 3.07 | D 2.83 | S 2.82 | R 1.97 | I 3.32 | Q 2.39 | A 2.25 | F 2.48 | E 2.36 | L 2.01 | N 2.56 | P 3.08 | C 2.41 | Y 2.6 | M 2.42 | H 3.84
R3: A 2.09 | L 1.74 | D 2.63 | V 2.08 | I 2.19 | S 2.04 | H 2.88 | M 3.28 | Q 2.84 | T 2.48 | G 1.61 | Y 1.64 | N 2.48 | P 1.84 | K 2.34 | E 2.48 | F 2.06
F19: I 4.22 | C 4.42 | Y 2.22 | T 4.8 | R 4.97 | H 3.76 | M 2.82 | P 4.51 | S 5.6 | Q 4.78 | K 5.64 | E 5.03 | D 5.43 | N 5.46 | A 5.06 | W 1.48
G11: E 3.21 | H 1.76 | A 2.57 | Q 1.18 | S 2.6 | V 2 | D 1.99 | R 2.35 | L 2.77 | K 3.5 | Y 1.45 | M 1.9 | T 1.58 | N 1.94 | C 1.52
